Laboratory results published in patent US7166454 (dated 2007).
Where no end group is shown, it is not given here.

Target: T1, refolded processed β-secretase (BACE) (human, UniProt P56817 43-454, limits assumed)
T1 construct: The processed preparation is an equimolar mixture of two species, LRLPRE; It is C-terminally truncated and lacks the transmembrane domain; It is not glycosylated; also called mamapsin 2
Test: X-ray structure coordinates of the complex

T1 sequence (P56817 43-454 limits assumed): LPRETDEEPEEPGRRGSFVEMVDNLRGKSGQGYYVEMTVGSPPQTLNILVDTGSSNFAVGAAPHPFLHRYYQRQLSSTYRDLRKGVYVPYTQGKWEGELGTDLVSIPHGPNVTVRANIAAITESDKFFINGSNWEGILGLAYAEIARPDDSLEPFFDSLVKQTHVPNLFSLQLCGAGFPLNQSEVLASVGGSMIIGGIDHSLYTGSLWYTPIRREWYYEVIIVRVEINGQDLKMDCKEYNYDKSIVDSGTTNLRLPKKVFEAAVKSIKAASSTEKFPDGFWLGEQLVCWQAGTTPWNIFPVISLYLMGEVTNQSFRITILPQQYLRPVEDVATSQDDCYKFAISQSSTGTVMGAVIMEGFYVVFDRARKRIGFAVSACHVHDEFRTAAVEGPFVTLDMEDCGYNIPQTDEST

binding result: binds
B1: OM-99-2 (peptide)
peptide: EVNLAAEF
modifications: also: L4-A5 as hydroxyethylene isostere (2R,4S,5S)-5-amino-4-hydroxy-2,7-dimethyl-octanoyl
notes: also called Bachem catalog # H-5108
